# From patent US20240228562A1 (Pieris, published 2024)
# T1: huWISP-2 (human, UniProt O76076 24-250, limits assumed)
# T1 construct: also called human WISP-2 (CCN5)
# T1 sequence (looked up): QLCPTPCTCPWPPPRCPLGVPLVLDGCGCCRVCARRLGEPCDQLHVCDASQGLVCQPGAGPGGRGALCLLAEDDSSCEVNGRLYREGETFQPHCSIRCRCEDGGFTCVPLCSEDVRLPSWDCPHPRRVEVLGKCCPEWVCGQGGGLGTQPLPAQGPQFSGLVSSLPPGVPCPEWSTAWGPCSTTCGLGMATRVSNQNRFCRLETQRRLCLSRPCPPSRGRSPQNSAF
# T2: huNOV (human, UniProt P48745 32-357, limits assumed)
# T2 construct: also called human NOV (CCN3)
# T2 sequence (looked up): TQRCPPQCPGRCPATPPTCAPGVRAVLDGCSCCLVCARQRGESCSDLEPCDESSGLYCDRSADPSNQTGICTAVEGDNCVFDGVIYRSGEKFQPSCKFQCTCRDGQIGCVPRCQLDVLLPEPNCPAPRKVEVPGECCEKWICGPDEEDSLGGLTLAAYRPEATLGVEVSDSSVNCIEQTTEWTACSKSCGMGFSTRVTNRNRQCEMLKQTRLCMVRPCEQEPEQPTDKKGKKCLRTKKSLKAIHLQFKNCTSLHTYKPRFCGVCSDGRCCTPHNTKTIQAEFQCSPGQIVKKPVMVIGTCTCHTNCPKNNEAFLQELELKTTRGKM
# T3: huWISP-3 (human, UniProt O95389 24-354, limits assumed)
# T3 construct: also called human WISP-3 (CCN6)
# T3 sequence (looked up): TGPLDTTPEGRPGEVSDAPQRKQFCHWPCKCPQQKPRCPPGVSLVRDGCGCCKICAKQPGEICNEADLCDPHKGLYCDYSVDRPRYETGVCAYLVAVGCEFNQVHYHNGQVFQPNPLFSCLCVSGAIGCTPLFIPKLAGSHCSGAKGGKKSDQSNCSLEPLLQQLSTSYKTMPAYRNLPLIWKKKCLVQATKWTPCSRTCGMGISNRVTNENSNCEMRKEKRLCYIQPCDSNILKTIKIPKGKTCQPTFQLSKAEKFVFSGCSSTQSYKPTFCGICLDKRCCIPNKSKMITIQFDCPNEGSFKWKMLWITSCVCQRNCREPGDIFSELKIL
# T4: huWISP-1 (human, UniProt O95388 23-367, limits assumed)
# T4 construct: also called human WISP-1 (CCN4)
# T4 sequence (looked up): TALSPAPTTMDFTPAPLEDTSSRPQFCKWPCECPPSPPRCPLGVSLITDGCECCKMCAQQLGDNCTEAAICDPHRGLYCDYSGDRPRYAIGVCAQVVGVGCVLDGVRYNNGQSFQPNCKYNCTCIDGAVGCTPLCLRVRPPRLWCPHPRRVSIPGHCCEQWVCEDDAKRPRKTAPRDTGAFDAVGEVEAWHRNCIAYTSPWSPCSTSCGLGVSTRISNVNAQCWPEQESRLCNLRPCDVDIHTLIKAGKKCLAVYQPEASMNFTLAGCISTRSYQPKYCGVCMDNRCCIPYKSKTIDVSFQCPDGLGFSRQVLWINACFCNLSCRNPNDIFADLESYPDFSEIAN
# T5: huCYR61 (human, UniProt O00622 25-381, limits assumed)
# T5 construct: also called human CYR61 (CCN1)
# T5 sequence (looked up): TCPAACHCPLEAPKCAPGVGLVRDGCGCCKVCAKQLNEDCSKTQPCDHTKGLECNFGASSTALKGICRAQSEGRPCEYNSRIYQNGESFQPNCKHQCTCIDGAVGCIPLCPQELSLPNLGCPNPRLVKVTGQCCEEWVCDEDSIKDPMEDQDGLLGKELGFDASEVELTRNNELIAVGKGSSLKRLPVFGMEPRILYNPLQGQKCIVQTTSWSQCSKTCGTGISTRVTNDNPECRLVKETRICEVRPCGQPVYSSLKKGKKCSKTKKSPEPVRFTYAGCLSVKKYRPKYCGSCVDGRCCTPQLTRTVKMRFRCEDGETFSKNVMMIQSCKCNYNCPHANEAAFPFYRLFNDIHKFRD
# T6: recombinant human CTGF protein (R&D Systems, SEQ ID NO: 79) (human, UniProt P29279 27-349)
# T6 construct: Bought; also called human CTGF/CNN2; huCTGF
# T6 sequence: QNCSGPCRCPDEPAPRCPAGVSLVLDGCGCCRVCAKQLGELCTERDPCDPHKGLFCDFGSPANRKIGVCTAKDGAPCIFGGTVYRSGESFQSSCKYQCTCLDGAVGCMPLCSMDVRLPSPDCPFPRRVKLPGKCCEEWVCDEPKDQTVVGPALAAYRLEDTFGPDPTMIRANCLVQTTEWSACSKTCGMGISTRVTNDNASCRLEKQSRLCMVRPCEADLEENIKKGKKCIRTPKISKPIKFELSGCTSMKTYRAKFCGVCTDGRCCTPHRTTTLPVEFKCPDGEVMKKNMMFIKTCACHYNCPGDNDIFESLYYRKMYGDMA
# What was measured:
# huWISP-2 = target: T1, huWISP-2; assay: ELISA, coated CCN protein
# Protocol: (§1) Binding of muteins to closely related proteins of CTGF was tested by an ELISA assay. In detail, a 384-well plate suitable for fluorescence measurements (Greiner FLUOTRAC™ 600, black flat bottom, high-binding) was coated with 20 μl of human CTGF or the other members of the CCN protein family at a concentration of 1 μg/ml in PBS over night at 4° C. After washing with PBS with 0.05% Tween 20, wells were blocked with 100 μl blocking buffer containing 0.1% Tween 20 and 2% BSA (PBS-T/BSA) for 1 h at room temperature. 20 μl of serially diluted muteins starting at 1000 nM were incubated in PBS-T/BSA for 1 h at room temperature (RT).
# (§2) The residual supernatants were discarded and 20 μl HRP-labeled anti-NGAL or anti-Strep-Tag antibody was added at a predetermined optimal concentration in PBS-T/BSA and incubated for 1 h at RT. After washing, 20 μl fluorogenic HRP substrate (QuantaBlu, Thermo) was added to each well, and the reaction was allowed to proceed for 2 to 60 minutes. The fluorescence intensity of every well on the plate was read using a fluorescence microplate reader (Tecan). When the signal for human CTGF approached saturation, the cross reactivity to the other proteins was assessed.
# huNOV = target: T2, huNOV; assay: ELISA, coated CCN protein
# Protocol: as §1, §2
# huWISP-3 = target: T3, huWISP-3; assay: ELISA, coated CCN protein
# Protocol: as §1, §2
# huWISP-1 = target: T4, huWISP-1; assay: ELISA, coated CCN protein
# Protocol: as §1, §2
# huCYR61 = target: T5, huCYR61; assay: ELISA, coated CCN protein
# Protocol: as §1, §2
# [1] = target: T6, recombinant human CTGF protein (R&D …); assay: ELISA, coated human CTGF
# Protocol: as §1, with “fusion” for “muteins to closely related”, “proteins” for “proteins of CTGF”, “(R&D Systems)” for “or the other members of the CCN protein family”, “muteins” for “muteins starting at 1000 nM”
# as §2, with “anti-His-Tag” for “anti-Strep-Tag”, “Curve fitting” for “When the signal for human CTGF approached saturation, the cross reactivity to the other proteins”, “performed using GraphPad Prism 7 or 8 software.” for “assessed.”
# [2] = target: T6, recombinant human CTGF protein (R&D …); assay: HTRF, 1 nM biotinylated human CTGF
# Protocol: Binding of some fusion proteins was tested by a Homogeneous Time Resolved Fluorescence (HTRF assay). In detail, 1 nM of biotinylated human CTGF (R&D Systems) was incubated for 1 h with a titration of some lipocalins starting at 5 nM in 384 Flat Bottom White Polystyrol microtiter plate (Greiner). Samples were diluted in PBS containing 0.1% Tween 20 and 2% BSA. As donor, Streptavidin-Terbium at a concentration of 0,006 μg/mL was used, the acceptor was 0.2 μg/mL anti-His-d2 (both CisBio). After another 1 h of incubation, the fluorescence intensity of the donor and acceptor on the plate was read using a fluorescence microplate reader M1000 (Tecan) with the standard settings recommended by CisBio. The calculated ratio of signals was used for the curve fitting performed in GraphPad Prism 7 software.
# [3] = target: T7, recombinant human CTGF-Fc protein (Creative Biomart) (human); assay: SPR (Biacore); B = binding without determination of kinetics constants
# T7 construct: Bought; also called human CTGF with a human IgG1 Fc Tag
# Protocol: The binding of exemplary lipocalin muteins to human (Creative Biomart), cynomolgus, rat (R&D Systems) and mouse CTGF (Abbexa) was determined by SPR using a Biacore instrument (Cytiva, formerly GE Healthcare). Some targets were fused to a human IgG1 Fc tag, and captured via the anti-human IgG antibody kit, others were directly immobilized.
# For some measurements, human CTGF with a human IgG1 Fc Tag or rat or murine CTGF without a tag were directly immobilized to a CM5 Chip. The carboxyl groups on the chip were activated using 1-ethyl-3-(3-dimethylaminopropyl)-carbodiimide (EDC) and N-hydroxysuccinimide (NHS). […] Residual non-reacted NHS-esters were blocked by passing a solution of 1 M ethanolamine across the surface. The reference channel was activated/deactivated. For the capture setting, targets with an IgG Fc Tag at 0.25-2.5 μg/mL in HBS-EP+ buffer were captured by the anti-human IgG-Fc antibody at the chip surface for 180 s at a flow rate of 10 μL/min.
# The binding assay was carried out with a contact time of 180 s, a dissociation time of 900-3600 s and a flow rate of 30 μL/min. All measurements were performed at 25° C. […] For the directly immobilized targets, the same regeneration conditions were used. Prior to the protein measurements, three startup cycles were performed for conditioning purposes.
EC50 [1] [nM],EC50 [2] [nM],binding result [3],Binder,binding result (huWISP-2),binding result (huNOV),binding result (huWISP-3),binding result (huWISP-1),binding result (huCYR61)
0.26,0.59,,"fusion protein of SEQ ID NO: 74 (designed binder, not shown: C-terminal His-tag) QDSTSDLIPAPPLSKVPLQQNFQDNQFQGKWYVVGLAGNAILREDKQPAKMFATIYELKEDKSYDVTSVRFEAKSCKYTIKTFVPGSQPGEFTAGYIKSAPGQTSTLVRVVSTNYNQHAMVFFKHVTQNREIFVITLYGRTKELTSELKENFIRFSKSLGLPENHIVFPVPIDQCIDGGGGGSGGGGSGGGGSQDSTSDLIPAPPLSKVPLQQNFQDNQFQGKWYVVGWAGNVKLREDKQPQKMSATIYELKEDKSYDVTEVVFEQKKCHYIIKTFVPGSQPGEFTAGDIKSPPGYTSSLVRVVSTNYNQHAMVFFKKVSQNREFFWITLYGRTKELTSELKENFIRFSKSLGLPENHIVFPVPIDQCIDG",no binding (tested: dilutions starting at 1000 nM),no binding (tested: dilutions starting at 1000 nM),no binding (tested: dilutions starting at 1000 nM),no binding (tested: dilutions starting at 1000 nM),no binding (tested: dilutions starting at 1000 nM)
0.24,0.62,,"fusion protein of SEQ ID NO: 76 (designed binder, not shown: C-terminal His-tag) QDSTSDLIPAPPLSKVPLQQNFQDNQFQGKWYVVGLAGNAILREDKQPAKMFATIYELKEDKSYDVTSVRFEAKSCKYTIKTFVPGSQPGEFTAGYIKSAPGQTSTLVRVVSTNYNQHAMVFFKHVTQNREIFVITLYGRTKELTSELKENFIRFSKSLGLPENHIVFPVPIDQCIDGGGGGSGGGGSGGGGSQDSTSDLIPAPPLSKVPLQQNFQDNQFQGKWYVVGWAGNVKLREDKQPLKMSATIYELKEDKSYDVTEVVFEQKKCHYIIKTFVPGSQPGEFTAGDIKSPPGYTSSLVRVVSTNYNQHAMVFFKKVSQNREFFWITLYGRTKELTSELKENFIRFSKSLGLPENHIVFPVPIDQCIDG",no binding (tested: dilutions starting at 1000 nM),no binding (tested: dilutions starting at 1000 nM),no binding (tested: dilutions starting at 1000 nM),no binding (tested: dilutions starting at 1000 nM),no binding (tested: dilutions starting at 1000 nM)
,,binds,"lipocalin mutein of SEQ ID NO: 17 (designed binder, also called hNGAL mutein; not shown: C-terminal His-tag) QDSTSDLIPAPPLSKVPLQQNFQDNQFQGKWYVVGLAGNAILRTDKQPAKMFATIYELKEDKSYDVTSVRFEAKSCVYTSKTFVPGSQPGEFTAGNIKSAPGQTSTLVRVVSTNYNQHAMVFFKHVSQNREFFVITLYGRTKELTSELKENFIRFSKSLGLPENHIVFPVPIDQCIDG",,,,,
,,binds,"lipocalin mutein of SEQ ID NO: 20 (designed binder, also called hNGAL mutein; not shown: C-terminal His-tag) QDSTSDLIPAPPLSKVPLQQNFQDNQFQGKWYVVGLAGNAILREDKQPAKMFATIYELKEDKSYDVTSVRFEAKSCSYTIKTFVPGSQPGEFTAGNIKSAPGQTSTLVRVVSTNYNQHAMVFAKAVQLNREHFFITLYGRTKELTSELKENFIRFSKSLGLPENHIVFPVPIDQCIDG",,,,,
